Sequences and labels used below:
B2: Listeria innocua RsbS (LiRsbS) (natural protein)
chain: MGIPILKLGECLLISIQSELDDHTAVEFQEDLLAKIHETSARGVVIDITSIDFIDSFIAKILGDVVSMSKLMGAKVVVTGIQPAVAITLIELGITFSGVLSAMDLESGLEKLKQELGE
notes: RsbS of Listeria innocua, gene CAC96121.1; single STAS domain protein; Ser56 not phosphorylated in the structure; source: E. coli BL21 Star (DE3), co-expressed with LiRsbR from pET11a, co-purified (DEAE, Resource Q, Superose 6 Increase SEC)

Series [1] deals with the molecule itself. Nature of the series: cryo-EM structure; co-expressed and co-purified LiRsbRS complex (monomeric form after SEC), 0.6 mg/mL; C1 map 4.2 Å, D2 map 3.87 Å, icosahedral map 3.45 Å; model built in the D2 map.
The target of series [2] is B2. The series is described as above. The settings on record: both partners purified.

For orientation: stoichiometry N means the number of molecules, sites or subunits per partner or assembly.

B1: Listeria innocua RsbR (LiRsbR) (natural protein)
chain: MYKDFANFIRTNKKDLLNNWMNEMEKQSDPLINDIAKEPMYEETSIEFVDLIVSNITENGSKFNEKLDDFAEKVVHLGWPIHFVTTGLRVFGLLVYTAMRDEDLFLKREEKPEDDAYYRFETWLSSMYNKVVTAYADTWEKTVSIQKSALQELSAPLLPIFEKISVMPLIGTIDTERAKLIIENLLIGVVKNRSEVVLIDITGVPVVDTMVAHHIIQASEAVRLVGCQAMLVGIRPEIAQTIVNLGIELDQIITTNTMKKGMERALALTNREIVEKEG
modifications: phosphothreonine at 241 (by ESI-MS-MS and cryo-EM density; seen only in RsbR protomers interacting with RsbS); Thr175 and Thr209 not phosphorylated
notes: RsbR of Listeria innocua, gene CAC96120.1; N-terminal sensory domain, linker helix and C-terminal STAS domain; also called RsbR1; source: E. coli BL21 Star (DE3), co-expressed with LiRsbS from pET11a, co-purified (DEAE, Resource Q, Superose 6 Increase SEC)
As to B1, the binding result in series [1] is reported as “binds”. Also, the “stoichiometry N” value in series [2] came out at 2 LiRsbR per LiRsbS.

For the molecule B2, the binding result in series [1] is on record as “binds”.

The values are drawn from PMC9237128, “Molecular insights into intra-complex signal transmission during stressosome activation” (Communications Biology, 2022).
